What was measured:
[1] = molecular target: the molecule itself; assay: SEC; SE-HPLC (AdvanceBio SEC 300 Å), untreated protein injected directly after thawing, 0.5 mg/mL, 10 mM potassium phosphate buffer pH 8.0, room temperature; oligomeric states from a calibration plot, percent of peak area, triplicate
Q72KD3 [2] = assay: SEC; SE-HPLC as in a1, after 10 min incubation at 65 °C and centrifugation at 10000 x g
Q72KD3 [3] = assay: SEC; SE-HPLC as in a1, after 20 min incubation at 65 °C and centrifugation at 10000 x g
Q72KD3 [4] = assay: SEC; SE-HPLC as in a1, after 5 min incubation at 65 °C and centrifugation at 10000 x g
Q72KD3 [5] = assay: SEC; SE-HPLC as in a1, after 15 min incubation at 65 °C and centrifugation at 10000 x g
Q72KD3 [6] = assay: SEC; SE-HPLC (AdvanceBio SEC 300 Å), untreated protein injected directly after thawing, 0.5 mg/mL, 10 mM potassium phosphate buffer pH 8.0, room temperature; oligomeric states from a calibration plot, percent of peak area, triplicate
[7] = molecular target: the molecule itself; assay: SEC; SE-HPLC (AdvanceBio SEC 300 Å) of ALDHTt-508 purified after a 15 min heat shock of the lysate at 65 °C; 50 µL of 0.5 mg/mL, percent of total peak area

B1: Aldehyde dehydrogenase from Thermus thermophilus HB27, native (ALDHTt-native) (enzyme, UniProt Q72KD3 1-530, looked up)
chain: MRKAAGKYGNTLEFGHLVGGEEVLEGPLLERRNPSDREDVVARFPEADKDLVRKAALKAREAFAEWSRTPAPIRGQVLFNLVKILEREKPTLTRLMVREVGKTPKEAAGDVQEAIDTALFFASEGRRLYGQTVPSEMRDKELFTFRRPLGVVGIITAGNFPIAVPSWKLIPAVLTGNTVVWKPSEDAPTLSFVFAKLFEEAGLPPGVLNVVFGGGKGSTGQWMVELMDEGLFQKFAFTGSTQVGRWIGEVAGRNLIRPTLELGGKNPLVVMRDADLDLAVEGAWWSAFATGGQRCTSAGNILVDAPIYEEFKRRFLERVEATLVGNPLLHPEVTYGPFINERFFARWQEHYRVGEAEGARLLFGRGRITRENPYPRFLGDPEAGLYGWPTVWEVRPGTRLFTEEVFGPTINLVKVDGIEEAIAVANSTPYGLSSAIYTNHRHWAYLFKVGIRAGMTSINNATVGAEAHLPFGGVKASGNGGRESGIWVLEEYTYWHAVNEEYSGRLQLAQMDTGYVSPKAPTPWGEVLGL
notes: Aldehyde dehydrogenase ALDHTt of Thermus thermophilus strain HB27, UniProtKB Q72KD3, 530 amino acids, with its 30-residue C-terminal tail; pET22b(+) construct
- stoichiometry N [1]: 4
- % dimer (SE-HPLC) (Q72KD3 [2]): 0%
- % monomer (SE-HPLC) (Q72KD3 [2]): 0%
- % tetramer (SE-HPLC) (Q72KD3 [2]): 94.9%
- % dimer (SE-HPLC) (Q72KD3 [3]): 0%
- % monomer (SE-HPLC) (Q72KD3 [3]): 0%
- % tetramer (SE-HPLC) (Q72KD3 [3]): 93.2%
- % dimer (SE-HPLC) (Q72KD3 [4]): 0%
- % monomer (SE-HPLC) (Q72KD3 [4]): 0%
- % tetramer (SE-HPLC) (Q72KD3 [4]): 97.7%
- % dimer (SE-HPLC) (Q72KD3 [5]): 0%
- % monomer (SE-HPLC) (Q72KD3 [5]): 0%
- % tetramer (SE-HPLC) (Q72KD3 [5]): 93.7%
- % dimer (SE-HPLC) (Q72KD3 [6]): 0%
- % monomer (SE-HPLC) (Q72KD3 [6]): 0%
- % tetramer (SE-HPLC) (Q72KD3 [6]): 98.8%

B2: ALDHTt-508, aldehyde dehydrogenase from Thermus thermophilus HB27 with a 22-amino acid truncation of the C-terminus (enzyme, UniProt Q72KD3 1-508, looked up)
chain: MRKAAGKYGNTLEFGHLVGGEEVLEGPLLERRNPSDREDVVARFPEADKDLVRKAALKAREAFAEWSRTPAPIRGQVLFNLVKILEREKPTLTRLMVREVGKTPKEAAGDVQEAIDTALFFASEGRRLYGQTVPSEMRDKELFTFRRPLGVVGIITAGNFPIAVPSWKLIPAVLTGNTVVWKPSEDAPTLSFVFAKLFEEAGLPPGVLNVVFGGGKGSTGQWMVELMDEGLFQKFAFTGSTQVGRWIGEVAGRNLIRPTLELGGKNPLVVMRDADLDLAVEGAWWSAFATGGQRCTSAGNILVDAPIYEEFKRRFLERVEATLVGNPLLHPEVTYGPFINERFFARWQEHYRVGEAEGARLLFGRGRITRENPYPRFLGDPEAGLYGWPTVWEVRPGTRLFTEEVFGPTINLVKVDGIEEAIAVANSTPYGLSSAIYTNHRHWAYLFKVGIRAGMTSINNATVGAEAHLPFGGVKASGNGGRESGIWVLEEYTYWHAVNEEYSGRLQL
notes: Aldehyde dehydrogenase ALDHTt of Thermus thermophilus strain HB27, UniProtKB Q72KD3, without the last 22 amino acids of the 530; also called truncated mutant
- stoichiometry N [1]: 4
- % of fully folded protein in the tetrameric peak [7]: 6.4 ± 1.5%
- % dimer (SE-HPLC) (Q72KD3 [2]): 0%
- % monomer (SE-HPLC) (Q72KD3 [2]): 0.79%
- % tetramer (SE-HPLC) (Q72KD3 [2]): 93.1%
- % dimer (SE-HPLC) (Q72KD3 [3]): 0%
- % monomer (SE-HPLC) (Q72KD3 [3]): 0.71%
- % tetramer (SE-HPLC) (Q72KD3 [3]): 91.4%
- % dimer (SE-HPLC) (Q72KD3 [4]): 0%
- % monomer (SE-HPLC) (Q72KD3 [4]): 0.87%
- % tetramer (SE-HPLC) (Q72KD3 [4]): 95.4%
- % dimer (SE-HPLC) (Q72KD3 [5]): 0%
- % monomer (SE-HPLC) (Q72KD3 [5]): 0.55%
- % tetramer (SE-HPLC) (Q72KD3 [5]): 95.8%
- % dimer (SE-HPLC) (Q72KD3 [6]): 1.71%
- % monomer (SE-HPLC) (Q72KD3 [6]): 2.5%
- % tetramer (SE-HPLC) (Q72KD3 [6]): 90%
